According to the nanobody polyreactivity screen of Harvey et al. (2022):

Assay: yeast display, Sf9 membrane polyspecificity reagent, FACS + sequencing; frameworks hold sequencing errors
Summary of the method: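 A nanobody's polyreactivity label depends on the gate it was sorted from. Yeast display cells were stained with 10% biotinylated, detergent-solubilized Sf9 membrane reagent for 1 hour at 4 °C, enriched on streptavidin microbeads and sorted by FACS. The low and high (top ~1%) gates were set on anti-HA fluorescence for expression and streptavidin fluorescence for reagent binding.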

Sequence	polyreactivity (PSR sort gate)
QVQLVESGGGLVQAGGSLRLSCAASGRTFRPNAMGWYRQAPGKERELVASITRRGGTTYYADSVKGRFTISRDNAKNTVYLQMYSLKPEDSAVYYCNAPPGYSSTRNGYWGQGTQVTVSS	high polyreactivity
QVQLVESGGGLVQAGGSLRLSCDASGIIFPYYAMGWYRQAPGKERELVAGISSSGGITYADSVKGRFTISRDNAKNTVYLQMNSLNPEDTAVYYCNAEYQWLEYDYWGQGTQVTVSS	low polyreactivity
QVQLVESGGGLVQAGGSLRLSCAASGRTFDLNDMGWYRQAPGKEREFVADIDWSGGNTYYADSVKGRFIISRDNAKNTVYLQMNSLKPEDTAVYYCNARRKRSYDYWGQGTQVTVSS	low polyreactivity
QVQLVESGRGLVQAGGSLRLSCAASGNTFNVNAMVWYRQEPGKERELVAAITRSGGITYYADSVKGRFTISRDNAKNTVYLQLNSMKPEDTAVYYCAVEGFGYAYYYFYEYDYWGQGTQVTVSS	high polyreactivity
QVQLVESGGGLVQTGGSLRLSCAASGRIFFDNAMGWYRQAPGKERELVAGIDSGGSTYYADSVKGRFTISRDNAKNTVYLQMNSLKPEDTAVYYCNSDYPPSTQSPLLQSYDYWGQGTQVTVSS	low polyreactivity
QVQLVESGGGLVQAGGSLRLSCAASGLIFKYNAMGWYRQAPGKERELVAAITWSGGITYADSVKGRFTISRDNAKNTVYLQMNSLKPEDTAVYYCAARGYWQPRPRRRYDYWGQGTQVTVSS	high polyreactivity
QVQHVESGGGLVQAGGSLRLSSAASGSIFTFYAMGWSRQAPGKEMELVADITGRGSRTYYADSVTGRFTISRDNAKNTVYLKMNSLKPEDTAVYYCAAGHDRYYQSEYGYWGQGTQVTVSS	high polyreactivity
QVQLVESGGGLVQAGGSLRLSCAASGITFVRNAMGWYRQAPGKERELVAAISSGGSTYYADSVKGRFTISRDNAKNTVYLQINSLKPEDTAVYYCNAQIYGRQYRYRWHYYWGQGTQVTVSS	high polyreactivity
QVQLVESGGGLVQAGGSHRLSCAASGRTFRYYTMGWYRQAPGKEREFVAAISSTGGTYYADSVKGRFTISRDNAKNTVYLQMNSLKPEDTAVYYCAKVYFWGALSPDKYDEDYWGQGTQVTVSS	low polyreactivity
QVQLVESGGGLVQAGGSLRLSCAASGRIFAVNAMGWYRQAPGKERELVATIRGSGTSTYYADSVKGRFTISRDNAKNTVYLQMNSLKPEDTAVYYCAARGRYRQFNYWGQGTQVTVSS	high polyreactivity
QVQMQESGGGLVQAGGSLRLICAASGTISVHASMGWYRQAPGKERELVAGITDGANTYYADSVKGRFTISRDNSKNTVYLQMNSLKPEDTAVYYCAAYYGTEVHFTYWGQGTQVTVSS	low polyreactivity
QVQLVESGGGLVQAGGSLRLSCAASGFTFYTNAMGWYRQAPGKERELVAAISKRGASTYYADSVKGRFTISRDNAKNTVYLQMNSLKPEDTAVYYCAASSRTHGSYDYWGQGTQVTVSS	high polyreactivity
QVQLVESGGGLVQAGGSLRLSCAASGLIFGGNAMGWYRQAPGKERELVAAITYRTGSTYYADSVKGRFTISRDNAKITVYLQMNSLKPEDTAVYDCAAAVSLGYPVAFYYWGQGTQVTVSS	low polyreactivity
QVQLVESGGGLVQAGGSLRLSCAASGFTFFHYAMGWYRQATGKEREFVAAINTRGSRTYYADSVKGRFTISRDNAKNTVYLQMNSLKPEDTAVYYCAADSVQVYAWQYYYWGQGTQVTVSS	high polyreactivity
QVQLVESGGGLVQAGGRLRLRCAASGFTFRYNAMGCNRQAPGKERELVATISSGASTYYADSVKGRFTISRDNAKNTVYFQMNSLIPVDSAVYYCAADDLGLWFYSGVDDYYYCGQGTQVTVSS	low polyreactivity
QVQLVESGGGLVQAGGSLRLSCAASGRIFGGYTMGWYRQAPGKERELVAAITSGGSTNYADSVKGRFTISRDNAKNTVYLQMNSLKPEDTAVYYCAATYDGTYDYWGQGTQVTVSS	high polyreactivity
QVQLVESGGGLVQAGGSLRLSCAASGSTFRRYAMGWYRQAPGKEREFVAGITFSGVSTYYADSVKGRFTISRDNAKNTVYLQMNSLKPEDTAVYYCNRRPKYVDNDYWGQGTQVTVSS	high polyreactivity
QVQLVESCGGLVQAGGSLRLSCAASGGTFGPNAMGWYRQAPGKERELVARISTSGGSTTYYADSVKGRFTISRDNAKNTFYLHMNSLKPEDTAVYYCAADYKPYYRRRYDYWGQGTQVTVSS	low polyreactivity
QVQLVESGGGLVQAGGSLRLSCAASGRTFRGYAMGWSRQAHGKEREFVATISSRGGSTYYADSVKGSFTISRDNAKHTVYLQMNSLKPEDTAVYYCAAKRRAKTGYRYDYWGQGTQVTLSS	high polyreactivity
QVQLVESGGCLVQAGGSLRLSCAASGPTFSKANAMGWYRQAPGKERELVAAITDGGSTYADSVKGRFTISRDNAKNTVYLQMYSMKPEDTAVYYCAKDTEVFYDSSYDYWGHGTQVTVSS	low polyreactivity
QVQLVESGGGLVQAGGSLRLSCAASGYTFGAYAMGWYRQAPGKERELVAAIPVRAGRTYYADSVKGRFTISRDNAKNTVYLQMNSLKPEDTAVYYCARRNPLGGNEHDYWGQGTQVTVSS	low polyreactivity
QVQLVESGGGLVQAGGSLRLSCAASGSTFRGYVMGWYRQAPGKERELVAAISRGGGSTYYADSVKGRFTISRDNAKNTVYLQMNSLKPEDTAVYYCATDYSGRQPGKYGYWGQGTQVTVSS	high polyreactivity

Sequence	polyreactivity (PSR sort gate)
QVQLVESGGGLVQAGGSLRLSCAASGRIFDSYAMGWYRQAPGKERELVATISWDSATTYYADSVKGRFTISRDNAKNTVYLQMNSLKPEDTAVYYCNTRDLYGYPQVTGYDYWGQGTQVTVSS	low polyreactivity
QVQLVESGGGLVQAGGSLRLSCAASGRIYIDYAMGWYRQAPGKERELVATISESGGSTYYADSVKGRITISRDNAKNTVYLQMNSLKPEDTAVYYCAVDDRSGTVYFYTKFDYWGQGTQVTVSS	low polyreactivity
QVQLVESGGGLVQAGGSLRLSCAASGSIFARYAMGWYRQAPGKERELVAAISSSGSRTYYADSVKGRFTISRDNAKNTVYLQMNSLKPEDTAVYYCATRYGSASGREYEYWGQGTQVTVSS	high polyreactivity
QVQLVESGGGLVQAGGSLRLSCAASGFTYRYYTMGLYRQAPGKERELVAAINTSGAGTYYADSVKGRFTISRDNAKNTVYLQMNSLKPEDTAVYYCAATWYGLDYNYWGQGTQVTVSS	high polyreactivity
QVQLVESGGGLVQAGGSLRLSCAASGLTFQTNAMGWYRQAPGKERELVAAISRRGSSTYYADSVKGRFTISRDNAKNTVYLQMNSLKPEDTAVYYCNAVRFLFIYPRYDYWGQGTQVTVSS	high polyreactivity
QVQLVESGGCLVQAGGSLRFSCAASGLTLFRYAMGWYRQAPGKERELVAAIDYGGGTYYADSVKGRFRISRDNAKNTVYLQMNSLKPEDTAVYYCAVEPEYKYYEGDYWGQGTQVNVSS	low polyreactivity
QVQLVESGGGLVQAGGSLRLSCAASGITFKYAMGWYRQAPGKERELVAAISGGGRTNYADSVKGRFTISRDNAKNTVYLQMNSLKPEDTAVYYCAAQGSRWWGFDYWGQGTQVTVSS	high polyreactivity
QVQLVESGGGLVQAGGSLRLSCAASGRIFTFYAMGWYRQAPGKERELVAAISSGGSTYYADSVKGRFTISRDNAKNTVFLQMNILKPEDTAVYYCAAVPVWYADYDYWGQGTQVTVSS	low polyreactivity
QVQLVESWGGLVQAGGSLRLSCAASGFTFTSYAMGCYRQAPGKEREFVAGITKGGGNTYYSDSVKGRFTISRDNAKNTVYLHMNSLKPEDTEVYYCAADRSSFYLSHGTVDCYDYWGQATQVTVSS	low polyreactivity
QVQLVESGGGLLQAGGSLLLSCAASGSIFDTNAMGWYRQAPGTERELVAAISWSDTSTYADSVKGRFTISRDNAKNTVYLQMNSLKPEDTAVYYCATDTRSQAYYYWGQGTQVNVSS	low polyreactivity
QVQLVESGGGLVQAGGSLRLSCAASGLIFVRYAMGWYRQAPGKERELVATITWSGGTTYADSVKGRFTISRDNAKNTVYLQMNSLKPEDTAVYYCAVEWPAWTDSDYPVGGHAFGYWGQGTQVTVSS	low polyreactivity
QVPLVESGRGLVQAGGSLRLSCAASGFIFKYYAMGWYRQAPGKEGELVASISSSGSSTYYADSVKGRFTISRDNAKNTVYLQMNSLKAEDTAVNYCNTVTYGPSAYDYLGQGTQVTVSS	low polyreactivity
QVQLVESGGGIVQAGGSLRLSCAASGLTFPPNAMGWYRPAPGKEREFVAVISSGGGSTYYADSVKGRFTISRDNAKNTVYSQMNSLKPEDTAVYYCATEYQDGDTEYYYWGQGTQVTVSS	low polyreactivity
QVQLVESGGGLVQAGGSLRLSCAASGRTFNRYAMGWYRQAPGKERELVAAINSVGSTYYADSVKGRFTISRDNAKNTVYLQMNSLKPEDTAVYYCNAVQGSRFGYWGQGTQVTVSS	high polyreactivity
QVQLHESGVGLVQAGGGLRLSCAATGSISSTGFMGWYRQAPGKEREPVAAIAPGTTTYYADSVKGRFTISRDNAKNTVYLQMNSLRPEDTAVYYCAVFTDNRVAFLYWGQGTQVTVSS	low polyreactivity
QVQLQESGGGLVQAGGSLRLSSAASGTISPLPAMGWYRHAPGKEREFVAGIDTGAIHNYADSVKGRFTIRRDNAKNTVYLQMNSLKPEDTAVYYCAVFPAAYEYYERYYTYWGQGTQVTVSS	low polyreactivity
QVQLVESGVGLVQAGGSLRLSCAASGGIFGKYVMGWSRQAPGKERELVAAITLRGGSTYYADSVKGRFTISRDNAKNTVYLQMNSLKPEDTAVYYCPRRAYQNWYNYWGQGTQVTVSS	high polyreactivity
QVQLVESGGGLDQAGGSLRLSCDASGRIFGYYAMGWYRQAPGKERELVAAITWTGGGTYYADSVKGRFTISRDNAKNTVYIQMNSLKPEDTAVYYCAADPDSGQFPFDYWGQGTQVTVSS	low polyreactivity
QDQLVESGGGLVQAGGSLPLSCAASANIFPLYAMGWYRQAPGKERELVAAITWSTTSTYYADSVKGRFTISRDNAKNTVYLQMNSLKPEDTAVYYCKAKTDESYYYSDYDYWVQGTQVTVSS	low polyreactivity
QVQLVESGGGLVQAGGSLRLSCAASGRIIYIYAMGWYRQAPGKERELVAAITASSGSTNYADSVKGRFTISRDNAKNTVYLQMNSLKPEDTAVYYCAAAPSRTLLRQSKYYYWGQGTQVTVSS	low polyreactivity
QVQLVESGGGLVQAGGSLRLSCAASGRIFSYYDMGWYRQAPGKERELVATIRWSTSSTYADSVKGRFTISRDNAKPTVYLQMNILKPEDTAVYYCNAQYSQVNGYDYWGQGTQVTVSS	low polyreactivity
